Measurements as given in IntAct's records for PubMed 25517094.

B1: "D(4) dopamine receptor" (Mus musculus), P51436 (parent)
chain: MGNSSATEDGGLLAGRGPESLGTGAGLGGAGAAALVGGVLLIGLVLAGNSLVCVSVASERTLQTPTNYFIVSLAAADLLLAVLVLPLFVYSEVQGGVWLLSPRLCDTLMAMDVMLCTASIFNLCAISVDRFVAVTVPLRYNQQGQCQLLLIAATWLLSAAVASPVVCGLNDVPGRDPAVCCLENRDYVVYSSVCSFFLPCPLMLLLYWATFRGLRRWEAARHTKLHSRAPRRPSGPGPPVSDPTQGPFFPDCPPPLPSLRTSPSDSSRPESELSQRPCSPGCLLADAALPQPPEPSSRRRRGAKITGRERKAMRVLPVVVGAFLVCWTPFFVVHITRALCPACFVSPRLVSAVTWLGYVNSALNPIIYTIFNAEFRSVFRKTLRLRC
B2: "D(3) dopamine receptor" (Homo sapiens), P35462-1 (parent)
chain: MASLSQLSGHLNYTCGAENSTGASQARPHAYYALSYCALILAIVFGNGLVCMAVLKERALQTTTNYLVVSLAVADLLVATLVMPWVVYLEVTGGVWNFSRICCDVFVTLDVMMCTASILNLCAISIDRYTAVVMPVHYQHGTGQSSCRRVALMITAVWVLAFAVSCPLLFGFNTTGDPTVCSISNPDFVIYSSVVSFYLPFGVTVLVYARIYVVLKQRRRKRILTRQNSQCNSVRPGFPQQTLSPDPAHLELKRYYSICQDTALGGPGFQERGGELKREEKTRNSLSPTIAPKLSLEVRKLSNGRLSTSLKLGPLQPRGVPLREKKATQMVAIVLGAFIVCWLPFFLTHVLNTHCQTCHVSPELYSATTWLGYVNSALNPVIYTTFNIEFRKAFLKILSC
B3: Muscarinic acetylcholine receptor M4 (Homo sapiens), P08173 (parent)
chain: MANFTPVNGSSGNQSVRLVTSSSHNRYETVEMVFIATVTGSLSLVTVVGNILVMLSIKVNRQLQTVNNYFLFSLACADLIIGAFSMNLYTVYIIKGYWPLGAVVCDLWLALDYVVSNASVMNLLIISFDRYFCVTKPLTYPARRTTKMAGLMIAAAWVLSFVLWAPAILFWQFVVGKRTVPDNQCFIQFLSNPAVTFGTAIAAFYLPVVIMTVLYIHISLASRSRVHKHRPEGPKEKKAKTLAFLKSPLMKQSVKKPPPGEAAREELRNGKLEEAPPPALPPPPRPVADKDTSNESSSGSATQNTKERPATELSTTEATTPAMPAPPLQPRALNPASRWSKIQIVTKQTGNECVTAIEIVPATPAGMRPAANVARKFASIARNQVRKKRQMAARERKVTRTIFAILLAFILTWTPYNVMVLVNTFCQSCIPDTVWSIGYWLCYVNSTINPACYALCNATFKKTFRHLLLCQYRNIGTAR

Variants of: B1
Settings: with SH3GL1, Q99961-1
Target sequence in this assay (Q99961 whole entry): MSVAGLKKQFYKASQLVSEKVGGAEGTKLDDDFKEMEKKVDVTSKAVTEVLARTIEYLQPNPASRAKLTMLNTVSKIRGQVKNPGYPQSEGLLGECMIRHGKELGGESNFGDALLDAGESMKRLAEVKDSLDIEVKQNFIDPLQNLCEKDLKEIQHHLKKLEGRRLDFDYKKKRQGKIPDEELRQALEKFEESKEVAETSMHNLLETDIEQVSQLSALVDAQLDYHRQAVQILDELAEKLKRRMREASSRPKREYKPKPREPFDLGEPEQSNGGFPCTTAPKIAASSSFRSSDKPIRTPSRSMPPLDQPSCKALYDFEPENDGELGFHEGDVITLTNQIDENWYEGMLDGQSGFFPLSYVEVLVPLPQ

effect of a mutation on the interaction	Variant
decreasing interaction strength	P230A;P233A
disrupting interaction strength	R231D;R232E

Variants of: B2
Settings: with SH3GL1, Q99961-1
Target sequence in this assay (Q99961 whole entry): as above

effect of a mutation on the interaction	Variant
decreasing interaction strength	R318E
decreasing interaction strength	K293E

Variants of: B3
Settings: with SH3GL1, Q99961-1
Target sequence in this assay (Q99961 whole entry): as above

effect of a mutation on the interaction	Variant
decreasing interaction strength	K255E;K256E
decreasing interaction strength	P330E
decreasing interaction strength	R230E
